Laboratory results as given in patent US20060211041A1 (Astellas, published 2006).

Tests used:
[1] = target: T1, mouse AKBP2 over-expressed in NIH3T3 L1 fat cells from adenovirus vector AKBP2/pAdTrack-CMV
T1 chain: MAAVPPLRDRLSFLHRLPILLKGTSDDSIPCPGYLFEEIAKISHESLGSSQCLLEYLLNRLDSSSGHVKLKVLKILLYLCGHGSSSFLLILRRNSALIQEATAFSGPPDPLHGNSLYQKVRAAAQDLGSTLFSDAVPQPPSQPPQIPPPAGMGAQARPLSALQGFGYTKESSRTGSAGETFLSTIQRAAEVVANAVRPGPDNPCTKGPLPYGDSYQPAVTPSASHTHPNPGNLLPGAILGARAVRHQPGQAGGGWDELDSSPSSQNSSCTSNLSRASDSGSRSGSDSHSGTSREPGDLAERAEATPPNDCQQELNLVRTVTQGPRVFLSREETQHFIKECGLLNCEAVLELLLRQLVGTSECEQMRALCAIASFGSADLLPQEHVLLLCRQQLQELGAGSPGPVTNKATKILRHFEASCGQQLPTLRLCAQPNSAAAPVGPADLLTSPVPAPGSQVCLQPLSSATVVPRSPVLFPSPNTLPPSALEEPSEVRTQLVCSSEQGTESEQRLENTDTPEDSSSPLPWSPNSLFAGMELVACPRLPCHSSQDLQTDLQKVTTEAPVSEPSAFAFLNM

[2] = target: T2, mouse AKBP2 (Akt2 Binding Protein 2) fused to the GAL4 transcriptional activation domain (pACT2 library clone … (mouse, UniProt Q3U3N6 1-573)); experiment: yeast two hybrid, HIS3 (3AT resistance) and lacZ (β-galactosidase) reporters
T2 construct: Prey of the yeast two hybrid screen; also called mouse AKBP2 protein; not shown: limits and junction r
T2 sequence: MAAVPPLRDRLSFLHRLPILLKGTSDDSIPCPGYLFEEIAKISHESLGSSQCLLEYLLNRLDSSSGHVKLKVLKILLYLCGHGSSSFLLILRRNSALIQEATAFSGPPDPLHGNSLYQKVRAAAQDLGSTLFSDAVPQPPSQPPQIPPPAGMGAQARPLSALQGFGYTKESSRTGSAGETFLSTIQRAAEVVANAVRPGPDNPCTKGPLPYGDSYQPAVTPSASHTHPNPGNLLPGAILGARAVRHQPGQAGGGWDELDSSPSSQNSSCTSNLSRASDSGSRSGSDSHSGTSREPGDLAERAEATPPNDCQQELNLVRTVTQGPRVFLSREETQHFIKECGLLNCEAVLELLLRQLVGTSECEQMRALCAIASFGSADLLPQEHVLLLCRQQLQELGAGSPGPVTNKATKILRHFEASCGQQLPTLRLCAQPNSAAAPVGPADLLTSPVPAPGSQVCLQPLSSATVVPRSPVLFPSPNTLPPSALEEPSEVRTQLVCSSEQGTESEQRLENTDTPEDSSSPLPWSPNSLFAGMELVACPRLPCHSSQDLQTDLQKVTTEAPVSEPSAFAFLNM
Protocol: The aforementioned yeast strain MaV203 for two hybrid transformed by pDB-Akt2 was suspended in 400 ml of YPD liquid medium (DIFCO), cultured at 30° C. for about 6 hours until absorbance at a wave length of 590 nanometer became from 0.1 to 0.4, and then made into competent cells by the lithium acetate method, and the final amount was suspended in 1.0 ml of 0.1 M lithium-tris buffer. The cells were transformed with 20 μg of the mouse fat tissue derived cDNA library prepared in the aforementioned (3), and the cells were selected by culturing on a solid synthetic minimal medium (DISCO, 20% agarose) from which tryptophan and leucine as respective selection markers of pDB-Akt2 and the library had been deleted, thereby obtaining a transformant into which both plasmids were introduced. At the same time, in order to select a cell having an activated reporter gene HIS3 which is expressed when a fusion protein of the GAL4 DNA binding domain artificially expressed in the two hybrid system is linked to a fusion protein of the GAL4 transcriptional activation domain, the transformed cells were cultured at 30° C. for 5 days on the solid minimal medium (20% agarose) from which histidine was removed together with tryptophan and leucine and to which 20 mM of 3AT (3-amino-1,2,4-triazole; Sigma) as an inhibitor of the enzyme encoded by HIS3 was added. […]

[3] = target: T3, GST protein (protein of GST moiety alone, from pGEX-3X) (UniProt P08515 1-218 = GST); experiment: GST pull down of 35S-labelled in vitro translated human AKBP2, SDS-PAGE and autoradiography
T3 construct: Control of the pull down
Protocol: Using the GST fusion Akt2 protein (to be referred to as GST-Akt2 hereinafter) prepared in the aforementioned (2), the presence or absence of direct interaction between human AKBP2 protein and Akt2 protein was verified by the GST-pull down method (H. Matsushime et al., Jikken Kogaku, Vol. 113, No. 6, p. 528, 1994). Firstly, using 0.5 μg of the pcDNA-human AKBP2 prepared in the aforementioned Example 5 as the template, and using 40 μl of a TNT kit (TNTR Quick Coupled Transcription/Translation System; Promega) and 1.3 MBq of a radioisotope (redivue Pro-mix L-[³⁵S]; Amersham), radioisotope-labeled human AKBP2 protein was prepared by in vitro transcription and translation in accordance with the attached protocols. A 15 μl portion of this human AKBP2 protein preparation solution was mixed with 1 μg of the GST protein or GST-Akt2 purified on glutathione beads in the aforementioned (2) and shaken at 4° C. for 1 hour after adding 0.3 ml of Buffer A (50 mM Tris-HCl (pH 7.5), 10% glycerol, 120 mM NaCl, 1 mM EDTA, 0.1 mM EGTA, 0.5 mM PMSF, 0.5% NP-40). […] After repeating this operation 4 times, proteins in the precipitate were separated by SDS polyacrylamide gel electrophoresis in accordance with a conventionally known method, and the human AKBP2 protein was detected by autoradiography. As a result, a band which is not detected when the GST protein is mixed was detected when GST-Akt2 was mixed.

T3 sequence (P08515 whole entry): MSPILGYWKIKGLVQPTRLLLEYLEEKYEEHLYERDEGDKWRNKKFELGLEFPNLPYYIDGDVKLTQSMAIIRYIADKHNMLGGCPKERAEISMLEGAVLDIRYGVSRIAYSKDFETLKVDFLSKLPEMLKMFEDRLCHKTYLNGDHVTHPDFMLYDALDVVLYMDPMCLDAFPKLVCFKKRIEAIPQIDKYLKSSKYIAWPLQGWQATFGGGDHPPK

B1: Akt2 of NIH3T3 L1 fat cells (endogenous, immunoprecipitated with anti-Akt2 antibody) (protein)
chain: MNEVSVIKEGWLHKRGEYIKTWRPRYFLLKSDGSFIGYKERPEAPDQTLPPLNNFSVAECQLMKTERPRPNTFVIRCLQWTTVIERTFHVDSPDEREEWMRAIQMVANSLKQRGPGEDAMDYKCGSPSDSSTSEMMEVAVNKARAKVTMNDFDYLKLLGKGTFGKVILVREKATGRYYAMKILRKEVIIAKDEVAHTVTESRVLQNTRHPFLTALKYAFQTHDRLCFVMEYANGGELFFHLSRERVFTEDRARFYGAEIVSALEYLHSRDVVYRDIKLENLMLDKDGHIKITDFGLCKEGISDGATMKTFCGTPEYLAPEVLEDNDYGRAVDWWGLGVVMYEMMCGRLPFYNQDHERLFELILMEEIRFPRTLGPEAKSLLAGLLKKDPKQRLGGGPSDAKEVMEHRFFLSINWQDVVQKKLLPPFKPQVTSEVDTRYFDDEFTAQSITITPPDRYDSLDPLELDQRTHFPQFSYSASIRE
- phosphorylation of the 473rd serine of immunoprecipitated Akt2, western blotting with anti-phosphorylated serine473 antibody, 30 minutes of insulin stimulation [1]: degree of the phosphorylation acceleration was weakened in the cells infected with the AKBP2 virus than in the control virus-infected cells
- phosphorylation of the 473rd serine of immunoprecipitated Akt2, western blotting with anti-phosphorylated serine473 antibody, no stimulation [1]: the phosphorylated state at the time of no stimulation was reduced in the cells infected with the AKBP2 virus in comparison with the control virus-infected cells

B2: human Akt2 fused to the GAL4 DNA binding region (expressed from pDB-Akt2 in yeast MaV203) (other, UniProt P31751 1-481, looked up)
chain: MNEVSVIKEGWLHKRGEYIKTWRPRYFLLKSDGSFIGYKERPEAPDQTLPPLNNFSVAECQLMKTERPRPNTFVIRCLQWTTVIERTFHVDSPDEREEWMRAIQMVANSLKQRAPGEDPMDYKCGSPSDSSTTEEMEVAVSKARAKVTMNDFDYLKLLGKGTFGKVILVREKATGRYYAMKILRKEVIIAKDEVAHTVTESRVLQNTRHPFLTALKYAFQTHDRLCFVMEYANGGELFFHLSRERVFTEERARFYGAEIVSALEYLHSRDVVYRDIKLENLMLDKDGHIKITDFGLCKEGISDGATMKTFCGTPEYLAPEVLEDNDYGRAVDWWGLGVVMYEMMCGRLPFYNQDHERLFELILMEEIRFPRTLSPEAKSLLAGLLKKDPKQRLGGGPSDAKEVMEHRFFLSINWQDVVQKKLLPPFKPQVTSEVDTRYFDDEFTAQSITITPPDRYDSLGLLELDQRTHFPQFSYSASIRE
notes: mature; Bait of the yeast two hybrid screen; also called Akt2 (PKBβ); not shown: limits and junction residues not pri
- binding result [2]: binds

B3: human AKBP2-V5-His 6 fusion protein (in vitro transcribed and translated from pcDNA-human AKBP2, 35S-labelled) (other, not shown: small tags and cut ends)
chain: MAAAPPLRDRLSFLHRLPILLKGTSDDDVPCPGYLFEEIAKISHESPGSSQCLLEYLLSRLHSSSGHGKLKVLKILLYLCSHGSSFFLLILKRNSAFIQEAAAFAGPPDPLHGNSLYQKVRAAAQDLGSTLFSDTVLPLAPSQPLGTPPATGMGSQARPHSTLQGFGYSKEHGRTGSAGEAFLSTIQKAAEVVASAMRPGPESPSTRRLLPRGDTYQPAMMPSASHGPPTLGNLLPGAIPGPRAVRHQPGQAGGGWDELDSGPSSQNSSQNSDLSRVSDSGSHSGSDSHSGASREPGDLAERVEVVALSDCQQELSLVRTVTRGPRAFLSREEAQHFIKACGLLNCEAVLQLLTCHLRGTSECTQLRALCAIASLGSSDLLPQEHILLRTRPWLQELSMGSPGPVTNKATKILRHFEASCGQLSPARGTSAEPGPTAALPGPSDLLTDAVPLPGSQVFLQPLSSTPVSSRSPAPSSGMPSSPVPTPPPDASPIPAPGDPSEAEARLAESRRWRPERIPGGTDSPKRGPSSCAWSRDSLFAGMELVACPRLVGAGAAAGESCPDAPRAPQTSSQRTAAKEPPGSEPSAFAFLNA
modifications: radioisotope-labelled (redivue Pro-mix L-[35S])
notes: also called human AKBP2 protein
- binding result [3]: no binding (tested: 1 µg of the GST protein)
